Test results from US20100204100A1, “BIOLOGICAL AGENTS ACTIVE IN CENTRAL NERVOUS SYSTEM” (THE JOHNS HOPKINS UNIVERISTY, priority 2007, published 2010).
“Also recorded” adds a separate entry of the source.

Assays:
cultured spinal neurons = test: In vitro delivery of Tat fusion peptide in cultured spinal neurons (Western blot, anti-His antibody); type: cell-based; details: 10 μM peptide, 30 min incubation, cultured mouse spinal neurons
Description: In Vitro Delivery of Tat Fusion Peptide in Cultured Spinal Neurons. The intracellular delivery of Tat fusion peptide was assessed by Western blot analysis 30 min after application of 10 μM Tat-PSD-95 PDZ2 to cultured spinal neurons. The same dose of PSD-95 PDZ2 without Tat served as a control. Spinal cord neuronal cultures were prepared as previously described (O'Brien, et al., 1997) with minor modification. In brief, embryonic day 14 mouse spinal cord was digested for 45 min at 34° C. Cells were gently dissociated with a 5-ml pipette, filtered through a 70-μm filter, and centrifuged through a solution of 1% soybean trypsin inhibitor and 1% bovine serum albumin at 80×g for 10 min. High-density cultures were plated at 2 million cells/60-mm dish. Cell lysates from high-density cultures were solubilized in 1% Triton X-100/0.2% sodium dodecyl sulfate (SDS) and subjected to SDS-polyacrylamide gel electrophoresis (SDS-PAGE). Proteins were immunoblotted with monoclonal anti-His antibody (Sigma) and visualized with enhanced chemiluminescence (Amersham Biosciences, Piscataway, N.J.).

[1] = Tests for locomotor function (placing, grasping, righting reflexes); type: in vivo, mouse; details: unanesthetized mice, 4 h after intraperitoneal injection, vs vehicle
From the text: Tests for Locomotor Function. Four hours after intraperitoneal injection of Tat fusion peptides, their effects on locomotor function were examined with the following tests as described previously (Coderre and Van, 1,1994; Tao, et al., 2003a). 1) Placing reflex: The mouse was held with hind limbs slightly lower than forelimbs and the dorsal surface of the hind paws was brought into contact with the edge of a table. The experimenter recorded whether the mouse placed its hind paws on the table surface reflexively; 2) Grasping reflex: The mouse was placed on a wire grid and the experimenter recorded whether the hind paws grasped the wire on contact; and 3) Righting reflex: The mouse was placed on its back on a flat surface and the experimenter noted whether it immediately assumed the normal upright position.
The effects of Tat fusion peptides on locomotor function were examined 4 h after intraperitoneal injection. The following tests were performed as described previously^23. 1) Placing reflex: The mouse was held with hind limbs slightly lower than forelimbs, and the dorsal surface of the hind paws was brought into contact with the edge of a table. The experimenter recorded whether the mouse placed its hind paws on the table surface reflexively; 2) Grasping reflex: The mouse was placed on a wire grid, and the experimenter recorded whether the hind paws grasped the wire on contact.

B1: Tat-PSD-95 PDZ2: His-tagged fusion peptide: HIV Tat minimal transduction domain (residues 47-57) fused to the second PDZ domain of PSD-95 (protein)
chain: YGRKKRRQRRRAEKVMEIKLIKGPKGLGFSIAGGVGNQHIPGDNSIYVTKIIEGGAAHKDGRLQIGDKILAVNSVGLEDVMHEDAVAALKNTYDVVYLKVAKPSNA
Cultured spinal neurons
  His-peptide detected in neurons (intracellular delivery), Western blotting with anti-His antibody: detected only; also recorded: only detected
[1]
  effect on locomotor function (placing, grasping, righting reflexes): no effect; also recorded: did not show any effect
